Assay results published in PMC3506662, “The Peripheral Binding of 14-3-3γ to Membranes Involves Isoform-Specific Histidine Residues” (PLoS ONE, 2012).
Where no end group is shown, it is not given here. [ ]: non-standard residue; d: D form. pS = N[C@@H](COP(=O)(O)O)C(=O)O

How the values were obtained:
[1] = biological target: T1, human 14-3-3γ, wild-type (human, UniProt P61981 2-247); assay: differential scanning fluorimetry; d14-3-3γ titrated with peptide from a 0.21 mM stock; SYPRO Orange; 20 to 95°C at 2°C/min; shift of Tm fitted to equation 1; legend: 10 µM subunit in 10 mM Na-Hepes, pH 7.4, 150 mM NaCl; settings: both partners purified
T1 construct: 14-3-3 protein gamma, human; d14-3-3γ is the same protein after extensive dialysis into phosphate-free 10 mM Na-Hepes, pH 7.4; also called wt-14-3-3γ; d14-3-3γ; source: E. coli (BL-21, codon+), GST fusion purified on glutathione-Sepharose 4B, cleaved by thrombin, further purified
T1 sequence: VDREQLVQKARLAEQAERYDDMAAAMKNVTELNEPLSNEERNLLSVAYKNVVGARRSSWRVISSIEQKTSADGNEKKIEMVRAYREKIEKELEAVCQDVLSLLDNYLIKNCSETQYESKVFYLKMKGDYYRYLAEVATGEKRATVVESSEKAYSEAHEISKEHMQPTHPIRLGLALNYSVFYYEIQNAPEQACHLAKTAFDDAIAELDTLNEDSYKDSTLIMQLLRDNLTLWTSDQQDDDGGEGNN

[2] = biological target: T1, human 14-3-3γ, wild-type; assay: SPR; data not shown; Biacore 3000, 25°C; wt-d14-3-3γ immobilised by amine coupling on CM5 (about 5 000 RU); THp-(1-43) injected in 10 mM Na-Hepes, pH 7.4, 0.005% P20; 0 mM salt; settings: both partners purified

Kd [1]: ~190 nM
Kd [2]: ~220 nM
B1: THp-(1-43), Ser19-phosphorylated N-terminal peptide of human tyrosine hydroxylase isoform 1 (peptide)
peptide: MPTPDATTPQAKGFRRAV[pS]ELDAKQAEAIMSPRFIGRRQSLIE
notes: also called phosphopeptide; source: synthetic peptide (CPC Scientific), approx. 90% purity
